The data set deals with T1, TcrX D54A D54A (Mycobacterium tuberculosis H37Rv) (UniProt O69730).
T1 sequence: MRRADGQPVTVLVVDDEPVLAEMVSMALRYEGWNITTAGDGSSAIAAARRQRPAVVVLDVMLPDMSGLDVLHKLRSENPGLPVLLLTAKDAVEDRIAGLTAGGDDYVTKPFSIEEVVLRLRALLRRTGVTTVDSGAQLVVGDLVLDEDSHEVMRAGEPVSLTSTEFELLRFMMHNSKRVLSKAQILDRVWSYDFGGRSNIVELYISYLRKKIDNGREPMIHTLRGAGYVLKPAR
The experiment in a line: EMSA.

On to “TACGACACGCTCAACCGAGATGCGGTGCTGCGTCACAGCGTCAAGTATCCGCACACGGCTGAGCAGACGCCATGCGGATCCTATGTGCGCGCTATGAAACCCGATTTG (double strand) [PtcrXY]”, for which the binding result is listed as “binds”.
